Article PMC10673843 (2023)

Target: CD44 (isoform 4), Fc-fused (human)
Assay: SPR; apparent KD, dimeric Fc-fused target

Sequence of CD44 (isoform 4), Fc-fused (human) (chain, as listed by the source): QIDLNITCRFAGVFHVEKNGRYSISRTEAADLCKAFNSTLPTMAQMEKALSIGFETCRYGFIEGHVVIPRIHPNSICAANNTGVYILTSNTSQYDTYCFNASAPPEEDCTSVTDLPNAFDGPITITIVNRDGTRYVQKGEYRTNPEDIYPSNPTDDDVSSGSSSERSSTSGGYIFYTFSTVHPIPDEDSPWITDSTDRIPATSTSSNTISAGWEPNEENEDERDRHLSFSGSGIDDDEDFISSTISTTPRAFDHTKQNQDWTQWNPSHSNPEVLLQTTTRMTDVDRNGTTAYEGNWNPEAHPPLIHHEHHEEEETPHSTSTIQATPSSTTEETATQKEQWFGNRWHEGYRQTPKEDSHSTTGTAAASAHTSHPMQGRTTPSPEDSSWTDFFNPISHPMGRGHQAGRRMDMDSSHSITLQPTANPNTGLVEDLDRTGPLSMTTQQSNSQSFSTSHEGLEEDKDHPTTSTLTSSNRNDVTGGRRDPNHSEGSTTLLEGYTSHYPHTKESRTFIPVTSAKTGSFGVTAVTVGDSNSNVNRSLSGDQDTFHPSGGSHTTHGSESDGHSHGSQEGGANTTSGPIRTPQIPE

Kd: 48 nM
B1: BIWA4 (bivatuzumab), as human IgG4 (antibody, V domains shown)
VH: EVQLVESGGGLVKPGGSLRLSCAASGFTFSSYDMSWVRQAPGKGLEWVSTISSGGSYTYYLDSIKGRFTISRDNAKNSLYLQMNSLRAEDTAVYYCARQGLDYWGRGTLVTVSS
VL: EIVLTQSPATLSLSPGERATLSCSASSSINYIYWYQQKPGQAPRLLIYLTSNLASGVPARFSGSGSGTDFTLTISSLEPEDFAVYYCLQWSSNPLTFGGGTKVEIK
